The target of data set [1] is AbHeR K216Q (Actinobacteria bacterium IMCC26103).
The target of data set [2] is Actinobacteria bacterium IMCC26103 heliorhodopsin (AbHeR) wild type (Actinobacteria bacterium IMCC26103).
Data set [3] shares this target. The source holds these as a separate data set.
The target in data set [4] is AbHeR D223N (Actinobacteria bacterium IMCC26103). Description: ITC; AbGS injected into purified AbHeR (WT or mutant) at 25°C, MicroCal ITC200; both in buffer SD (150 mM NaCl, 50 mM Tris-HCl pH 7.0, 0.02% DDM); in the absence of light. For orientation: Isothermal titration calorimetry measures the heat released or taken up as one component is titrated into another.
Data set [5] addresses AbHeR E151Q (Actinobacteria bacterium IMCC26103). Described as above.
For data set [6], the target named is AbHeR K148Q (Actinobacteria bacterium IMCC26103). Described as above.
Data set [7] has as its target AbHeR K216Q (Actinobacteria bacterium IMCC26103). The description is as above.
Data set [8] deals with Actinobacteria bacterium IMCC26103 heliorhodopsin (AbHeR) wild type (Actinobacteria bacterium IMCC26103). Described as above.
For data set [9] the target is unchanged. Description: ITC; purified AbGS with AbHeR in inverted membrane vesicles (IMV) of E. coli C43 (DE3), no detergent; text: IMVs injected into AbGS, legend: AbGS added to IMVs; in the absence of light.
The subject of data set [10] is Glu105. Description: UV-vis. To be noted: Not stated for the titration. The purification buffer SD contains 150 mM NaCl., Not stated for the titration. The purified protein was in buffer SD: 150 mM NaCl, 50 mM Tris-HCl pH 7.0, 0.02% DDM. The protocol is referred to ref 8., detergent-solubilised, retinal-bound AbHeR WT. Light adaptation is not stated.

Sequence of Actinobacteria bacterium IMCC26103 heliorhodopsin (AbHeR) wild type (Actinobacteria bacterium IMCC26103) (main, as listed by the source): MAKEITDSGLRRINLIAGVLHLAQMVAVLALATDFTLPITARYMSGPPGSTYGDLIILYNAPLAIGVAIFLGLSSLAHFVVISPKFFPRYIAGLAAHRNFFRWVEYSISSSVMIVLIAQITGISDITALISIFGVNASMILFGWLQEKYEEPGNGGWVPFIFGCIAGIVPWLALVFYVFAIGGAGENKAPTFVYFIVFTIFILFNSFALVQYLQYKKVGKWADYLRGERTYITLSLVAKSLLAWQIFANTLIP

For “Actinobacteria bacterium IMCC26103 glutamine synthetase (AbGS) (enzyme)”, in [1], the kcat/Km of AbGS (Glu, Mn2+-supported biosynthetic reaction, 37°C) with AbHeR K216Q IMV, dark; AbGS alone 5.42 stood at 5.45 M⁻¹ s⁻¹ and the kcat/Km of AbGS (Glu, Mn2+-supported biosynthetic reaction, 37°C) with AbHeR K216Q IMV, light (532 nm); AbGS alone 5.42 came out at 6.91 M⁻¹ s⁻¹. Further, in data set [2], the kcat/Km of AbGS (Glu, Mn2+-supported biosynthetic reaction, 37°C) with AbHeR WT IMV, dark; AbGS alone 5.42 amounted to 8.01 M⁻¹ s⁻¹ and the kcat/Km of AbGS (Glu, Mn2+-supported biosynthetic reaction, 37°C) with AbHeR WT IMV, light (532 nm); AbGS alone 5.42 amounted to 12.2 M⁻¹ s⁻¹. For the same substance, in data set [3], the amount of product (Pi) of the AbGS biosynthetic reaction with AbHeR WT IMV at 150 min, in the absence of light, against AbHeR K216Q IMV is 1.09 times; the amount of product (Pi) of the AbGS biosynthetic reaction with AbHeR WT IMV at 150 min, in the presence of light against the absence of light amounted to 1.1 times; the amount of product (Pi) of the AbGS biosynthetic reaction with AbHeR WT IMV at 150 min, in the presence of light, against AbHeR K216Q IMV turned out to be 1.2 times. Moreover, in data set [4], the Kd amounted to 44 µM and the dH was found to be 4.75 kJ/mol. In data set [5], this substance registered a Kd of 30 µM and a dH of 9.87 kJ/mol. In data set [6], the Kd came to 137 µM and the dH was 22.2 kJ/mol. This substance displayed a Kd in data set [7] of 3680 µM. In data set [8], this substance yielded a Kd of 100 µM and a dH of 8.67 kJ/mol. The Kd in data set [9] worked out at 6.06 µM.

Consider “Heliorhodopsin AbHeR (Actinobacteria bacterium IMCC26103)”, for which, in data set [10], the pKa is on record as 2.84 (± 1.07).

The Kd is the concentration at which binding is half-saturated. Read a high Kd as lower affinity. In general, pKa refers to the pH at which an ionisable group is half protonated. A high value points to a group that holds its proton tightly.

The record behind these values is paper PMC9529153.
